Data as given in patent publication US8563520B2, “Treatment of ocular disease with inhibitors of alpha2 macroglobulin protein” (McGill University, priority 2005, dated 2013).
Read-outs that look alike come from different tables or passages of the source.

System: Rat Retina
Description: The following experiment was conducted in order to assess changes in gene expression induced in the retina after intraocular injection of α2 macroglobulin protein. 2 μg of α2 macroglobulin protein was intraocularly injected into the right eye of rats (n=3) and the left eye was used as a control. One rat was tested at Day 3, one rat was tested at Day 7 and one rat was tested at Day 14. Retinas were isolated and mRNA was collected. Samples from each of the rats were studied by gene microassays. Retinas were carefully dissected out to insure that only retinal mRNAs were prepared for gene microarray studies. Samples were obtained from control eyes.
Total RNA was isolated from retinal tissue using TRIZOL® (Life Technologies). RNA was then further purified using the RNAEASY® (QIAGEN®). The integrity of the RNA samples was assessed by running aliquots on RNA 6000 Nano LabChip (Agilent) using the 2100 bioanalyzer (Agilent).
Probe synthesis, hybridization and scanning were done according to Affymetrix protocol, as a service at the McGill University and Genome Quebec Innovation Centre. For the experiments shown, Rat U34 Genome Arrays (8,700 genes, Affymetrix) were used. Briefly, RNA samples were first converted to double stranded cDNA (T7-(dT)24 primer (Genset)). Then the cDNAs were purified and used to generate the biotinylated cRNA probes (Bioarray High Yield RNA transcript labeling kit (Enzo diagnostics)). An aliquot of the purified cRNA was analyzed on RNA 6000 Nano LabChip (Agilent) to verify the integrity and size distribution. Immediately after hybridization the chip was placed in the Affymetrix GeneChip Fluidics Station 400 (Affymetrix). In total, 10 low-stringency washes (63 SSPE, 0.01% Tween-20, 0.005% Antifoam) and 4 high-stringency washes (100 mM MES, 0.1 M NaCl, 0.01% Tween-20, 50 C) were performed (all reagents from Sigma). The array was then incubated with SAPE® (streptavidin/phycoerythrin stain, Molecular Probes), followed by 10 low stringency washes. The array was incubated with biotinylated anti-streptavidin antibody (Vector Laboratories) and washed again with 15 low stringency washes. Specifically bound probe was detected by placing the array in the Agilent GeneArray scanner 2500 (Affymetrix). The scanned images were analyzed using the Microarray Analysis Suite version 5.0 (Affymetrix).
The fold change was analyzed by […] data for the control eye from the data on the eye injected with α2 macroglobulin. A fold change of 2 or greater indicates upregulation. A fold of 0.5 to 2 indicates no change. A fold change of 0.5 or less indicates downregulation.

[1] = gene ADP-ribosylation factor guanine nucleotide-exchange factor 1 (1392282_at)
[2] = gene Bone morphogenetic protein receptor, type 1A (1390398_at)
[3] = gene CDNA clone IMAGE: 7321089 (1389986_at)
[4] = gene CREB binding protein (1385852_at)
[5] = gene Ewing sarcoma breakpoint region 1 (1378518_at)
[6] = gene Exosome component 8 (predicted) (1386936_at)
[7] = gene FERM domain containing 4B (1384681_at)
[8] = gene Fc receptor, IgG, low affinity IIb (1371079_at)
[9] = gene High density lipoprotein binding protein (1375309_at)
[10] = gene RT1 class II, locus Ba (1370822_at)
[11] = gene RT1 class II, locus Bb (1371033_at)
[12] = gene RT1 class II, locus Da (1370883_at)
[13] = gene RT1 class II, locus Db1 (1370383_s_at)
[14] = gene S100 calcium binding protein A11 (calizzarin) (1375170_at)
[15] = gene Similar to CG10084-PA (1394756_at)
[16] = gene Similar to NICE-3 (1397412_at)
[17] = gene Similar to expressed sequence AV312086 (predicted) (1390657_at)
[18] = gene Similar to hypothetical protein D630010C10 (1385108_at)

B1: α2m: α2 macroglobulin protein injected intraocularly into normal rat eyes (protein, UniProt P06238 28-1472, looked up)
Alpha-2-macroglobulin: SAPQKPIYMVMVPSLLHAGTPEKACFLFSHLNETVAVRVSLESVRGNQSLFTDLVVDKDLFHCTSFTVPQSSSDEVMFFTVQVKGATHEFRRRSTVLVKKKESLVFAQTDKPIYKPGQTVRFRVVSLDESFHPLNELIPLLYIQDPKNNRIAQWQNFNLEGGLKQLSFPLSSEPTQGSYKVVIRTESGRTVEHPFSVEEFVLPKFEVRVTVPETITILEEEMNVSVCGIYTYGKPVPGRVTVNICRKYSNPSNCFGEESVAFCEKLSQQLDGRGCFSQLVKTKSFQLKRQEYEMQLDVHAKIQEEGTGVEETGKGLTKITRTITKLSFVNVDSHFRQGIPFVGQVLLVDGRGTPIPYETIFIGADEANLYINTTTDKHGLARFSINTDDIMGTSLTVRAKYKDSNACYGFRWLTEENVEAWHTAYAVFSPSRSFLHLESLPDKLRCDQTLEVQAHYILNGEAMQELKELVFYYLMMAKGGIVRAGTHVLPLKQGQMRGHFSILISMETDLAPVARLVLYAILPNGEVVGDTAKYEIENCLANKVDLVFRPNSGLPATRALLSVMASPQSLCGLRAVDQSVLLMKPETELSASLIYDLLPVKDLTGFPQGADQREEDTNGCVKQNDTYINGILYSPVQNTNEEDMYGFLKDMGLKVFTNSNIRKPKVCERLRDNKGIPAAYHLVSQSHMDAFLESSESPTETRRSYFPETWIWDLVVVDSAGVAEVEVTVPDTITEWKAGAFCLSNDTGLGLSPVVQFQAFQPFFVELTMPYSVIRGEAFTLKATVLNYLPTCIRVAVQLEASPDFLAAPEEKEQRSHCICMNQRHTASWAVIPKSLGNVNFTVSAEALNSKELCGNEVPVVPEQGKKDTIIKSLLVEPEGLENEVTFNSLLCPMGAEVSELIALKLPSDVVEESARASVTVLGDILGSAMQNTQDLLKMPYGCGEQNMVLFAPNIYVLDYLNETQQLTQEIKTKAIAYLNTGYQRQLNYKHRDGSYSTFGDKPGRNHANTWLTAFVLKSFAQARKYIFIDEVHITQALLWLSQQQKDNGCFRSSGSLLNNAMKGGVEDEVTLSAYITIALLEMSLPVTHPVVRNALFCLDTAWKSARGGAGGSHVYTKALLAYAFALAGNQDTKKEILKSLDEEAVKEEDSVHWTRPQKPSVSVALWYQPQAPSAEVEMTAYVLLAYLTTEPAPTQEDLTAAMLIVKWLTKQQNSHGGFSSTQDTVVALHALSKYGSATFTRAKKAAQVTIHSSGTFSTKFQVNNNNQLLLQRVTLPTVPGDYTVKVTGEGCVYLQTSLKYSVLPREEEFPFTVVVQTLPGTCEDPKAHTSFQISLNISYTGSRSESNMAIADVKMVSGFIPLKPTVKMLERSVHVSRTEVSNNHVLIYLDKVSNQTVNLSFTVQQDIPIRDLKPAVVKVYDYYEKDEFAVAKYSAPCSTDYGNA
Fold Change (α2m vs normal) Day 3 [1]: 0.5 | Fold Change (α2m vs normal) Day 7 [1]: 0.3 | Fold Change (α2m vs normal) Day 3 [2]: 0.4 | Fold Change (α2m vs normal) Day 7 [2]: 0.2 | Fold Change (α2m vs normal) Day 14 [2]: 2.6 | Fold Change (α2m vs normal) Day 3 (gene CD74 antigen (1367679_at)): 10.1 | Fold Change (α2m vs normal) Day 7 (gene CD74 antigen (1367679_at)): 6.5 | Fold Change (α2m vs normal) Day 3 [3]: 0.5 | Fold Change (α2m vs normal) Day 7 [3]: 0.3 | Fold Change (α2m vs normal) Day 14 [3]: 2.9 | Fold Change (α2m vs normal) Day 3 [4]: 0.5 | Fold Change (α2m vs normal) Day 7 [4]: 0.4 | Fold Change (α2m vs normal) Day 3 [5]: 0.4 | Fold Change (α2m vs normal) Day 7 [5]: 0.1 | Fold Change (α2m vs normal) Day 3 [6]: 0.4 | Fold Change (α2m vs normal) Day 7 [6]: 4.3 | Fold Change (α2m vs normal) Day 14 [6]: 2.4 | Fold Change (α2m vs normal) Day 3 [7]: 0.5 | Fold Change (α2m vs normal) Day 7 [7]: 0.2 | Fold Change (α2m vs normal) Day 14 [7]: 2.3 | Fold Change (α2m vs normal) Day 3 [8]: 9.4 | Fold Change (α2m vs normal) Day 7 [8]: 2.1 | Fold Change (α2m vs normal) Day 3 [9]: 0.5 | Fold Change (α2m vs normal) Day 7 [9]: 0.5 | Fold Change (α2m vs normal) Day 3 (gene LOC361776 (1373010_at)): 20.1 | Fold Change (α2m vs normal) Day 7 (gene LOC361776 (1373010_at)): 0.5 | Fold Change (α2m vs normal) Day 3 [10]: 8.3 | Fold Change (α2m vs normal) Day 7 [10]: 4.5 | Fold Change (α2m vs normal) Day 3 [11]: 6.8 | Fold Change (α2m vs normal) Day 7 [11]: 5.2 | Fold Change (α2m vs normal) Day 3 [12]: 16.1 | Fold Change (α2m vs normal) Day 7 [12]: 11.3 | Fold Change (α2m vs normal) Day 3 [13]: 4.9 | Fold Change (α2m vs normal) Day 7 [13]: 3.5 | Fold Change (α2m vs normal) Day 3 [14]: 2.0 | Fold Change (α2m vs normal) Day 7 [14]: 4.5 | Fold Change (α2m vs normal) Day 3 [15]: 0.5 | Fold Change (α2m vs normal) Day 7 [15]: 0.3 | Fold Change (α2m vs normal) Day 14 [15]: 2.4 | Fold Change (α2m vs normal) Day 3 [16]: 0.5 | Fold Change (α2m vs normal) Day 7 [16]: 0.4 | Fold Change (α2m vs normal) Day 14 [16]: 2.0 | Fold Change (α2m vs normal) Day 3 [17]: 0.4 | Fold Change (α2m vs normal) Day 7 [17]: 0.3 | Fold Change (α2m vs normal) Day 3 [18]: 0.4 | Fold Change (α2m vs normal) Day 7 [18]: 0.2
